In patent US7407766:

Biological target: full-length mouse Plexin-A1 protein (aa1 to 1894) (mouse) (UniProt P70206)
Assay: AP activity bound to Plexin-A1 expressing L cells, non-specific binding to parent L cells subtracted; Scatchard plot

Chain of full-length mouse Plexin-A1 protein (aa1 to 1894) (mouse) (P70206 28-1894 limits assumed): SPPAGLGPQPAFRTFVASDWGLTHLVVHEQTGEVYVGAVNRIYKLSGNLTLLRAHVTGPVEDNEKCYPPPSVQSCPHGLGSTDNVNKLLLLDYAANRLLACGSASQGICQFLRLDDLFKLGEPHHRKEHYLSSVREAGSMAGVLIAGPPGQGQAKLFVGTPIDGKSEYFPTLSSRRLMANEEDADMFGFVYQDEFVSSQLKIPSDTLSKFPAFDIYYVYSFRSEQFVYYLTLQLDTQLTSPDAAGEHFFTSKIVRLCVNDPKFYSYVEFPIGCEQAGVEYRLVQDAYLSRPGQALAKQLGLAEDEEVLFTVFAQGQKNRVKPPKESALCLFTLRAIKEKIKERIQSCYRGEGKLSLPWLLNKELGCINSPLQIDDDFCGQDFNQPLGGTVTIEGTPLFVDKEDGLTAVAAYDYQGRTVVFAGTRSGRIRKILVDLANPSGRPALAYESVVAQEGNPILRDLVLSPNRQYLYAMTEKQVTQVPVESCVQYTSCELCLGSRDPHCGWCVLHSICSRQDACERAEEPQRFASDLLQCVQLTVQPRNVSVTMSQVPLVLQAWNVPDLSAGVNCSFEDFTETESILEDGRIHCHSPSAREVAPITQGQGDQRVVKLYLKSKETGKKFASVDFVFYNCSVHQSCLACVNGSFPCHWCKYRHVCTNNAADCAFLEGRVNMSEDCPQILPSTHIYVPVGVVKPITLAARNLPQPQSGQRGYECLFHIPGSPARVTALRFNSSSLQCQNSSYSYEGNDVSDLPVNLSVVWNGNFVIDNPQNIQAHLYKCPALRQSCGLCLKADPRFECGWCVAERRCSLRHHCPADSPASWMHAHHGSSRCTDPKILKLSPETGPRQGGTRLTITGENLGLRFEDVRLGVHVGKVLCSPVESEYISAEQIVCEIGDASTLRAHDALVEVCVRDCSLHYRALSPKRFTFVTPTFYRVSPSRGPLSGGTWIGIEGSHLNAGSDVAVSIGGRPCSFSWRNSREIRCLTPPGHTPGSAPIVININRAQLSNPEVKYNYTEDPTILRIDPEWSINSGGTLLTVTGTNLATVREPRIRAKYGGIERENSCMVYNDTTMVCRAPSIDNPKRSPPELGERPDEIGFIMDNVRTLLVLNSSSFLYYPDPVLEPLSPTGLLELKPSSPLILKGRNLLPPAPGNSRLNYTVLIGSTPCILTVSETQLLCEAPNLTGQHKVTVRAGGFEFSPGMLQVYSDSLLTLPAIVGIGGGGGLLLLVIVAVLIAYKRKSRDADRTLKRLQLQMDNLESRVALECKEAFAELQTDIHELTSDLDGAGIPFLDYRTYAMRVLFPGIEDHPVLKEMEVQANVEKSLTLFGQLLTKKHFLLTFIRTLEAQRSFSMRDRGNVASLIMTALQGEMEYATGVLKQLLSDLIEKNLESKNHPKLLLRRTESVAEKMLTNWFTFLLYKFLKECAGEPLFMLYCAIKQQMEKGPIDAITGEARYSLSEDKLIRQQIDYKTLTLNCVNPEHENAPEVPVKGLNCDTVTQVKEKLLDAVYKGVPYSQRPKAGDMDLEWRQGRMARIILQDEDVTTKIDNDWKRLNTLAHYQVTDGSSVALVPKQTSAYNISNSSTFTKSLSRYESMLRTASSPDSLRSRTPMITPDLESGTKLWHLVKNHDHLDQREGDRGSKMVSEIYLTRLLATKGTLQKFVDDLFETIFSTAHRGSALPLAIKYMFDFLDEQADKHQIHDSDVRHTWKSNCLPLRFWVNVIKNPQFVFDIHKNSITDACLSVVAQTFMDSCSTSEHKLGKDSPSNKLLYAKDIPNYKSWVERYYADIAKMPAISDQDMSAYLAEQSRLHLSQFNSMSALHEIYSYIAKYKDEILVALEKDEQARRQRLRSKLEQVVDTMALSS

- Kd: 16.5 nM
Substance: Sema6C-alkaline phosphatase fusion protein (Sema6C-S-AP) (from UniProt Q9WTL3 24-599; P05187 23-511) (ligand)
